Legend:
[1] = molecular target: T1, bifunctional CD80-anti-17-1A scFv construct, clone 5-3 (human, UniProt P33681 35-242); assay: flow cytometry on 17-1A-transfected CHO cells, undiluted supernatant, anti-CD80 detection
T1 construct: extracellular domain; CHO culture supernatant; also called pEFDHFR+CTI+CD80+scFv anti 17-1A 5-3; CD80-scFv-construct 5-3
Experimental: (§1) FIG. 9.1: Binding studies of 17-1A specific bifunctional CD80-scFv-constructs on 17-1A transfected (filled lines) and untransfected CHO cells (broken lines) detected by flow cytometry. 5 ×10^5 cells were incubated in 50 μl undiluted cell-culture supernatant containing the corresponding bifunctional construct. Bound bifunctional CD80-scFv-constructs were detected by a monoclonal anti-CD80 antibody (Immunotech. Cat. No.: 1449) diluted 1:20 in 50 μl PBS. Incubation conditions were the same as described in FIG. 8.5. Bound CD80-antibody was finally detected by a fluorescein conjugated polyclonal Goat Anti-Mouse IgG+IgM (H+L) antibody diluted 1:100 in PBS. Incubation was again carried out for 30 minutes on ice. For the fixation of fluorescein-labeled cells 1% paraformaldehyd in PBS was used. As first negative control untransfected CHO was used. The second negative control contained 17-1A-transfected cells that were incubated with PBS instead of bifunctional CD80-scFv-constructs. Cells were analysed by flow cytometry on a FACS scan (Becton Dickenson).
(§2) For this purpose adherent untransfected and 17-1A-transfected CHO-cells were detached using PBS containing 0,05% Trypsine, respectively. 5 ×10^5 cells were incubated for 30 minutes on ice in 50 µl culture supernatant containing the corresponding bifunctional construct undiluted (FIG. 9.1). Bound bifunctional CD80-scFv-constructs were detected by a monoclonal anti-CD80 antibody (Immunotech. Cat. No: 1449) diluted 1:20 in 50 µl PBS. Incubation conditions were the same as above. Bound CD80-antibody was finally detected by a fluorescein conjugated polyclonal Goat Anti-Mouse IgG+IgM (H+L) antibody diluted 1:100 in PBS. Incubation was again carried out for 30 minutes on ice. For the fixation of fluorescein-labeled cells 1% paraformaldehyd in PBS was used.

[2] = molecular target: T2, bifunctional CD80-anti-17-1A scFv construct, clone 3-1 (human, UniProt P33681 35-242); assay: as above
T2 construct: extracellular domain; CHO culture supernatant; also called pEF-DHFR+CTI+CD80+scFv 17-1A clone 3-1; CD80-scFv-construct 3-1
Experimental: as §1, §2

[3] = molecular target: T3, bifunctional CD80-anti-17-1A scFv construct, clone 4-1 (human, UniProt P33681 35-242); assay: as above
T3 construct: extracellular domain; CHO culture supernatant; also called pEF-DHFR+CTI+CD80+scFv 17-1A clone 4-1; CD80-scFv-construct 4-1
Experimental: as §1, §2

[4] = molecular target: T4, bifunctional CD80-anti-17-1A scFv construct, clone 3-5 (human, UniProt P33681 35-242); assay: as above
T4 construct: extracellular domain; CHO culture supernatant; also called pEF-DHFR+CTI+CD80+scFv 17-1A clone 3-5; CD80-scFv-construct 3-5
Experimental: as §1, §2

[5] = molecular target: T5, bifunctional CD80-anti-17-1A scFv construct, clone 5-10 (human, UniProt P33681 35-242); assay: as above
T5 construct: extracellular domain; CHO culture supernatant; also called pEHDFR+CTI+CD80+scFv anti 17-1A 5-10; CD80-scFv-construct 5-10
Experimental: as §1, §2

[6] = molecular target: T6, bifunctional CD80-anti-17-1A scFv construct, clone 5-13 (human, UniProt P33681 35-242); assay: as above
T6 construct: extracellular domain; CHO culture supernatant; also called pEF-DHFR+CTI+CD80+scFv 17-1A clone 5-13; CD80-scFv-construct 5-13
Experimental: as §1, §2

[7] = molecular target: T7, bifunctional CD80-anti-17-1A scFv construct, clone 4-7 (human, UniProt P33681 35-242); assay: as above
T7 construct: extracellular domain; CHO culture supernatant; also called pEFDHFR+CTI+CD80+scFv anti 17-1A 4-7; CD80-scFv-construct 4-7
Experimental: as §1, §2

[8] = molecular target: T8, bifunctional CD80-anti-17-1A scFv construct, clone 4-4 (human, UniProt P33681 35-242); assay: as above
T8 construct: extracellular domain; CHO culture supernatant; also called pEF-DHFR+CTI+CD80+scFv 17-1A clone 4-4; CD80-scFv-construct 4-4
Experimental: as §1, §2

[9] = molecular target: T9, CD80-VD4.5VK8 scFv(VH/VL) construct with short (Gly4Ser1)1 linker (human, UniProt P33681 35-242); assay: flow cytometry on 17-1A-transfected CHO cells, anti-CD80 detection
T9 construct: extracellular domain; Tested as CHO culture supernatant; also called bifunctional CD80-VD4.5VK8-scFv-construct; pEF-DHFR+CTI+CD80+scFv VD4.5VK8
Experimental: as §1, with “The second negative control contained 17-1A-transfected cells that were incubated with PBS instead of bifunctional CD80-scFv-constructs.” left out
For this purpose adherent untransfected and 17-1A-transfected CHO-cells were detached using PBS containing 0,05% Trypsine, respectively. […] Bound bifunctional CD80-scFv-constructs were detected by a monoclonal anti-CD80 antibody (Immunotech. Cat. No: 1449) diluted 1:20 in 50 µl PBS. […] Bound CD80-antibody was finally detected by a fluorescein conjugated polyclonal Goat Anti-Mouse IgG+IgM (H+L) antibody diluted 1:100 in PBS. […]

B1: transmembrane 17-1A antigen (complete amino acid sequence, GA733-2) on transfected CHO cells (other, UniProt P16422 24-314, looked up)
chain: QEECVCENYKLAVNCFVNNNRQCQCTSVGAQNTVICSKLAAKCLVMKAEMNGSKLGRRAKPEGALQNNDGLYDPDCDESGLFKAKQCNGTSMCWCVNTAGVRRTDKDTEITCSERVRTYWIIIELKHKAREKPYDSKSLRTALQKEITTRYQLDPKFITSILYENNVITIDLVQNSSQKTQNDVDIADVAYYFEKDVKGESLFHSKKMDLTVNGEQLDLDPGQTLIYYVDEKAPEFSMQGLKAGVIAVIVVVVIAVVAGIVVLVISRKKRMAKYEKAEIKEMGEMHRELNA
notes: whole, on cells; also called 17-1A-transfected CHO-cells
binding result [1]: binds | binding result [2]: binds | binding result [3]: binds | binding result [4]: binds | binding result [5]: binds | binding result [6]: binds | binding result [7]: binds | binding result [8]: binds | binding result [9]: no binding (tested: undiluted culture supernatant)

From patent US7435549 (MICROMET, dated 2008)
